# Patent US20230203107A1, “PEPTIDE FOR TREATING SEPSIS DERIVED FROM RV3364C PROTEIN OF MYCOBACTERIUM TUBERCULOSIS” (priority 2021, published 2023)
# What was measured:
# [1] = biological target: T1, EGFLAM (EGF-like Fibronectin type III and Laminin G domains) (Homo sapiens, UniProt Q63HQ2); experiment: HuProt human proteome microarray, binding of rRv3364c; conditions: cell-free protein microarray, signal at 532 nm
# T1 construct: containing 20,000 or more full-length recombinant human proteins; purchased CDI Labs, USA (HuProt Human Proteome Microarray)
# T1 sequence (Q63HQ2 25-1017): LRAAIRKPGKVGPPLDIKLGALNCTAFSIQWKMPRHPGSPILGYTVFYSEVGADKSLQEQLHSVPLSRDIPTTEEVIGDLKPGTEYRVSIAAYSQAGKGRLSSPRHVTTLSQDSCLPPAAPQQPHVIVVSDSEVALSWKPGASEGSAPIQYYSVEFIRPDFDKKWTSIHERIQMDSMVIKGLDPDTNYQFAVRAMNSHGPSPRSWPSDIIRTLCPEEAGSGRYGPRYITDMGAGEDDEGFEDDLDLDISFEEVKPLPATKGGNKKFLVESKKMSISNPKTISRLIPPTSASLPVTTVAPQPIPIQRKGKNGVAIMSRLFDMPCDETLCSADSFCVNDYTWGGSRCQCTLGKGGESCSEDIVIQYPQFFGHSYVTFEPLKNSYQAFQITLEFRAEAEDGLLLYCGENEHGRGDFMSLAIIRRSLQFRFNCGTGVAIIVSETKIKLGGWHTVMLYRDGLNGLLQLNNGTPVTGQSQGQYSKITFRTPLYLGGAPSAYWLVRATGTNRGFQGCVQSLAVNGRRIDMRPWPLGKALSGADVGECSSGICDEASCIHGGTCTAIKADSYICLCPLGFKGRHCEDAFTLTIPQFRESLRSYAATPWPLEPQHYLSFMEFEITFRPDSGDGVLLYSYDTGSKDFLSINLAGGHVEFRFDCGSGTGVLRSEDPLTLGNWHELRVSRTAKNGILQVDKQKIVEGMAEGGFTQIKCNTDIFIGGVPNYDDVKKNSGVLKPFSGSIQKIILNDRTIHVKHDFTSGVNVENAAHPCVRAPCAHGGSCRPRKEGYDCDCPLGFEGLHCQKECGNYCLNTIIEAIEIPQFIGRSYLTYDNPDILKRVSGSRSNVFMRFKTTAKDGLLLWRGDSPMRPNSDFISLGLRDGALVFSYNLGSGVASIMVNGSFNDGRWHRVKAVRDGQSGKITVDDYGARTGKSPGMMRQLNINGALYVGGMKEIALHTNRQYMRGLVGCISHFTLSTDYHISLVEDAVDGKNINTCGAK
# From the text: (§1) FIGS. 1A and 1B illustrate results of screening candidate proteins predicted to potentially interact with rRv3364c in a CDI HuProt™ Human Proteome Microarray. Each figure illustrates a section of a protein array showing a positive response. A signal at 532 nm was stronger in an rRv3364c group than in a control group;
# (§2) In order to identify a protein binding to rRv3364c, human protein microarrays (CDI Labs, USA) containing 20,000 or more full-length recombinant human proteins were used. Specifically, the protein microarrays were treated with a blocking buffer (2% BSA in PBS, 0.1% […]) for 2 hours. 3 μg of […] on the microarrays at 4° C. for 8 hours. Thereafter, each array was treated with 1 μg of streptavidin fluorescence Alexa Fluor 532 nm at 4° C. for 1 hour. Microarray results were detected using a GenePix 4100A microarray laser scanner (Molecular Devices, USA).
# (§3) A customized protein binding assay was used to identify interacting proteins, and candidate proteins capable of potentially interacting with rRv3364c were selected. […] In FIG. 1A, an affinity score (A score) is a normalized signal intensity of two overlapping points, and a specificity score (B score) is a difference between the affinity score of the protein and the protein ranked next thereto.
# [2] = biological target: T2, ZBTB46 (zinc finger and BTB domain-containing 46) (Homo sapiens, UniProt Q86UZ6); experiment: as above; conditions: cell-free protein microarray, signal at 532 nm
# T2 construct: containing 20,000 or more full-length recombinant human proteins; purchased CDI Labs, USA (HuProt Human Proteome Microarray)
# T2 sequence (Q86UZ6 1-589): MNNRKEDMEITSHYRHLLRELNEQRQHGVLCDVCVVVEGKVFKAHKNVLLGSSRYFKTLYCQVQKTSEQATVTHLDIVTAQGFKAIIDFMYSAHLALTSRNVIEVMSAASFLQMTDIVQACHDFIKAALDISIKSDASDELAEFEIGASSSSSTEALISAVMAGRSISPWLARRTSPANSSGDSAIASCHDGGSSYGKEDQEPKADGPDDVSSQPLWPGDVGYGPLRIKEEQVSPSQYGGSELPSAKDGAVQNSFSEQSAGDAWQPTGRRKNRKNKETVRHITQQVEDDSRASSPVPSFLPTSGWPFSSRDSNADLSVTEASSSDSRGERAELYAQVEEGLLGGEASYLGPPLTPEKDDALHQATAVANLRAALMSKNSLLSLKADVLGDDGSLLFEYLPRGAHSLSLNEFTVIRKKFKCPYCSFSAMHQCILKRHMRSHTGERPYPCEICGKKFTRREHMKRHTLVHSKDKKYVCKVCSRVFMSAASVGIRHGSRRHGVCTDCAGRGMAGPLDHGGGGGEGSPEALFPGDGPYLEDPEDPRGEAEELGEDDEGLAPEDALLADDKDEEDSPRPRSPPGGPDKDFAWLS
# From the text: as §1, §2, §3
# [3] = biological target: T3, SNX9 (sorting nexin 9) (Homo sapiens, UniProt Q9Y5X1); experiment: as above; conditions: cell-free protein microarray, signal at 532 nm
# T3 construct: containing 20,000 or more full-length recombinant human proteins; purchased CDI Labs, USA (HuProt Human Proteome Microarray)
# From the text: as §1, §2, §3
# [4] = biological target: T4, YEATS4 (YEATS domain-containing protein 4) (Homo sapiens, UniProt O95619); experiment: as above; conditions: cell-free protein microarray, signal at 532 nm
# T4 construct: containing 20,000 or more full-length recombinant human proteins; purchased CDI Labs, USA (HuProt Human Proteome Microarray)
# From the text: as §1, §2, §3
# [5] = biological target: T5, cathepsin G (Homo sapiens, UniProt P08311); conditions: membrane protein of macrophages; cited from earlier work
# T5 sequence (P08311 21-244): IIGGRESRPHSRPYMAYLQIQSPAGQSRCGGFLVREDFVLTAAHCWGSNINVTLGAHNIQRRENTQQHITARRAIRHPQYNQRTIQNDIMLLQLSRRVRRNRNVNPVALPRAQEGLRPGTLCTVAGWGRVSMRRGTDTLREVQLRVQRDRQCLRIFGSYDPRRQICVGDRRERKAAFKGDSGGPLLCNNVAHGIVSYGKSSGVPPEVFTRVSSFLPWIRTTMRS
# [6] = tested on: macrophages (BMDM); type: cell-based, mouse; conditions: 1 μg/ml, 18 hours, ELISA
# [7] = biological target: T6, SNX9 (Mus musculus, UniProt Q91VH2); experiment: Co-immunoprecipitation, cell fractionation and immunostaining in macrophages and HEK293T cells; type: cell-based; conditions: cell fractionation (Raw264.7) and immunostaining (BMDM), 1 μg/ml rRv3364c, time course
# T6 construct: harvesting BMDM cells with different treatment times of 1 μg/ml rRv3364c, performing immunoprecipitation (IP) with αHis; endogenous in cells; host or cells: mouse BMDM, Raw264.7
# [8] = tested on: SNX9; experiment: as above; type: cell-based; conditions: macrophages and HEK293T cells, 1 μg/ml rRv3364c, 15 to 30 min
# [9] = biological target: T7, YEATS4 (Mus musculus, UniProt Q9CR11); experiment: as above; type: cell-based; conditions: cell fractionation (Raw264.7) and immunostaining (BMDM), 1 μg/ml rRv3364c, time course
# T7 construct: harvesting BMDM cells with different treatment times of 1 μg/ml rRv3364c, performing immunoprecipitation (IP) with αHis; endogenous in cells; host or cells: mouse BMDM, Raw264.7
# [10] = tested on: YEATS4; experiment: as above; type: cell-based; conditions: macrophages and HEK293T cells, 1 μg/ml rRv3364c, 15 to 30 min
# [11] = tested on: macrophages
# T3 sequence (Q9Y5X1 whole entry): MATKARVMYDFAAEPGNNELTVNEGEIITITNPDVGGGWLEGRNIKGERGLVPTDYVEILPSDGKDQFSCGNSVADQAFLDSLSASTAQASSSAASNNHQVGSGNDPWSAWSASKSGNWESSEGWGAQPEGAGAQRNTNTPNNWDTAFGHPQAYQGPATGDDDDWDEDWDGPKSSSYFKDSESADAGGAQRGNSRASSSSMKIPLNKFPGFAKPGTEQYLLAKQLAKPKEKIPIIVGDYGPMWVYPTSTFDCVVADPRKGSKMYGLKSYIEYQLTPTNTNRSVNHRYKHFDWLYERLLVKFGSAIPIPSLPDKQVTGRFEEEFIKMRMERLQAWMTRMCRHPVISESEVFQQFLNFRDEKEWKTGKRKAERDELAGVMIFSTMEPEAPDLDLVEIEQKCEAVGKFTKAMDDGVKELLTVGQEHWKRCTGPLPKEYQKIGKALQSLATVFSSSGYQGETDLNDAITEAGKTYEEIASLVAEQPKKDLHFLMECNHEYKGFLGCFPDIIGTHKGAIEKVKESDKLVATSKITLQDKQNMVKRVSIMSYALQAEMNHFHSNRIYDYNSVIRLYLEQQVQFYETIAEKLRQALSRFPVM
# T6 sequence (Q91VH2 whole entry): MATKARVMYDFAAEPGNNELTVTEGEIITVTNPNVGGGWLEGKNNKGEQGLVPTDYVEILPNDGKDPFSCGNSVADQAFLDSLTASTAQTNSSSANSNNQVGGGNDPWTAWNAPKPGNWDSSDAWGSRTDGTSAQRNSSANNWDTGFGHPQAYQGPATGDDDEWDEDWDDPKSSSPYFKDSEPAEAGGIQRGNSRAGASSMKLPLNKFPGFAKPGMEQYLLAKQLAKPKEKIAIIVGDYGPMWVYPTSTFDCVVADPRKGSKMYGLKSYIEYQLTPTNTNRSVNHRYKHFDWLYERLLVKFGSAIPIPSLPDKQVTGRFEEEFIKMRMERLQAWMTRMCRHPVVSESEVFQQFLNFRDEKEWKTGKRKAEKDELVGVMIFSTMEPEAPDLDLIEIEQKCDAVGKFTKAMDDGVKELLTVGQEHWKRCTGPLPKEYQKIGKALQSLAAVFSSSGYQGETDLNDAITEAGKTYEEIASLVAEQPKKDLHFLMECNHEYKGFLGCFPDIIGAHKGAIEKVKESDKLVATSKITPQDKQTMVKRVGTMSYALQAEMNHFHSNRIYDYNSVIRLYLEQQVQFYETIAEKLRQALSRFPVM
# T7 sequence (Q9CR11 whole entry): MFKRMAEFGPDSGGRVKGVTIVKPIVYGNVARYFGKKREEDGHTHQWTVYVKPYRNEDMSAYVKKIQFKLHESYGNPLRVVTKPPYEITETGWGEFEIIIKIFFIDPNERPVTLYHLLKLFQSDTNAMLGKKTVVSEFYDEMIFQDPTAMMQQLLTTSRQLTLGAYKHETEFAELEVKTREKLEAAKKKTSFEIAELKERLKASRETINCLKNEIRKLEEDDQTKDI
# T4 sequence (O95619 whole entry, the tested form may be a part): as the sequence (Q9CR11 whole entry) above, with T224A counted along it
substance,measurement,setting,value
"rRv3364c: recombinant Rv3364c protein of MTB H37Rv with N-terminal 6xHis tag, expressed in E. coli, 13 kDa",affinity with rRv3364c,[1],high affinity
same,affinity with rRv3364c,[2],high affinity
same,affinity with rRv3364c,[3],high affinity
same,affinity with rRv3364c,[4],high affinity
same,enzymatic activity of cathepsin G,[5],inhibit its enzymatic activity
same,"production of pro-inflammatory cytokines (TNF-α, IL-6, and IL-12p40) and anti-inflammatory cytokines (IL-10)","[6]; BMDM, through TLR4/MyD88/TRAF6/TBK1-IRAK1 pathway",promoted the production
same,production of rRv3364c-induced inflammatory cytokines in SNX9−/− compared to SNX9+/+ macrophages,[6]; SNX9−/− BMDM,significantly reduced
same,intracellular position of binding to SNX9,[7],initially bound to SNC9 in the cytoplasm
same,interaction with endogenous and extrinsic SNX9 (co-immunoprecipitation),[8],strongly interacted
same,intracellular position of binding to YEATS4,[9],migrated to the nucleus to bind to YEATS4
same,interaction with endogenous and extrinsic YEATS4 (co-immunoprecipitation),[10],strongly interacted
same,rRv3364c-induced cytotoxicity,[11],not observed
